Data from paper PMC2719339.

Key:
[1] = target: thiostrepton resistance RNA methyltransferase (Tsr) (Streptomyces azureus) (UniProt P18644); test: native gel or EMSA
[2] = target: thiostrepton resistance RNA methyltransferase (Tsr) (Streptomyces azureus) (UniProt P18644); test: SEC

thiostrepton resistance RNA methyltransferase (Tsr) (from UniProt P18644 1-269) (enzyme)
stoichiometry N [1]: 2 | stoichiometry N [2]: 2
